In US20220195043A1 (BEIJING MABWORKS BIOTECH, published 2022):
Substitutions are numbered along the chain they refer to. Read-outs that look alike come from different tables or passages of the source. One block for each binder: values may come before it.

Columns and labels:
[1] = target: T1, monkey CD3ε-his (Cat #: 90047-C08H, SinoBiological, China) (monkey, UniProt Q95LI5 22-117); test: ELISA: plate coated with monkey CD3ε-his, antibody titrated, HRP goat anti-human IgG, OD 450
T1 construct: Bought protein; also called monkey CD3ε protein; recombinant monkey CD3ε
T1 sequence: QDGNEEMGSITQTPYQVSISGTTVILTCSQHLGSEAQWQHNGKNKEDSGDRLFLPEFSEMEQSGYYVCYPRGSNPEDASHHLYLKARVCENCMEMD

[2] = target: T2, human TCR/CD3 complex on cell surfaces (primary human CD4+ T cells; Jurkat cells; human PBMCs) (human, UniProt P07766 23-207); test: FACS on primary human CD4+ T cells, PE goat anti-human IgG, MFI
T2 construct: whole, on cells; Native complex on cells; the γ, δ, ζ and TCR chains of the complex are present on the cells too; also called human CD3 complexes on cell surfaces; human CD3+ T cells
T2 sequence (P07766 23-207, one chain of several): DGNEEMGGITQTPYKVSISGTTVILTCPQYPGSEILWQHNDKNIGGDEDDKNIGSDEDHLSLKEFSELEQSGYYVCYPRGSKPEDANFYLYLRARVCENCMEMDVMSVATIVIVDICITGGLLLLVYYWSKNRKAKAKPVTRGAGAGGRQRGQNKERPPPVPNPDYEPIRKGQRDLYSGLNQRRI

[3] = target: T3, human CD3ε-his (Cat #:10977-H08s, SinoBiological, China) (human, UniProt P07766 23-126); test: ELISA: plate coated with human CD3ε-his, antibody titrated, HRP goat anti-human IgG, OD 450
T3 construct: Bought protein; also called human CD3ε protein; recombinant human CD3ε; not shown: his tag
T3 sequence (P07766 23-126 limits assumed): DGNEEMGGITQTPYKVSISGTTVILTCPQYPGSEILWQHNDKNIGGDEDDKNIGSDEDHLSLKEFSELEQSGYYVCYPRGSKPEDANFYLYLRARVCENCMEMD

[4] = target: T3, human CD3ε-his (Cat #:10977-H08s, …); test: SPR (BIAcore 8K); human CD3ε-his coupled to CM5 chip, antibody injected
[5] = target: T1, monkey CD3ε-his (Cat #: 90047-C08H, …); test: ELISA: plate coated with monkey CD3ε-his, antibody titrated, HRP goat anti-human IgG, OD 450; remark: listed apart in the source
[6] = target: T3, human CD3ε-his (Cat #:10977-H08s, …); test: ELISA: plate coated with human CD3ε-his, antibody titrated, HRP goat anti-human IgG, OD 450; remark: listed apart in the source
[7] = target: T4, human CD20 (HEK293A/human CD20 cells) (human, UniProt P11836 1-297); test: cell-based or functional assay
T4 sequence: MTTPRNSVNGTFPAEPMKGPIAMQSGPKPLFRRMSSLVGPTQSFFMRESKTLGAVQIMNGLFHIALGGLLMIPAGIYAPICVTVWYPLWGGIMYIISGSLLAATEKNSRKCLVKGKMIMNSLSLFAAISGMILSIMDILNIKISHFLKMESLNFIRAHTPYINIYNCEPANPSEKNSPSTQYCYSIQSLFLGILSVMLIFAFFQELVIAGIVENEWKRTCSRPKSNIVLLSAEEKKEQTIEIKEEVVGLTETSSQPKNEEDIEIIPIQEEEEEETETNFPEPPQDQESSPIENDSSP

[8] = target: T5, monkey CD20 (HEK293A/monkey CD20 cells) (monkey, UniProt P11836 1-297 (human entry)); test: FACS on HEK293A/monkey CD20 (CynoCD20) cells, PE anti-human IgG secondary antibody, MFI
T5 construct: Stably expressed on HEK293A cells; also called cynomolgus CD20
T5 chain: T4 sequence with S25P, F31L, T51A, A157V, N166Y, K217R, N226S, I227V, T239V

[9] = target: T3, human CD3ε-his (Cat #:10977-H08s, …); test: SPR (BIAcore 8K); human CD3ε-his coupled to CM5 chip, antibody injected; remark: listed apart in the source
[10] = target: T4, human CD20 (HEK293A/human CD20 cells); test: FACS on HEK293A/human CD20 cells, PE anti-human IgG secondary antibody, MFI
[11] = target: T3, human CD3ε-his (Cat #:10977-H08s, …); test: ELISA: plate coated with human CD3ε-his (hCD3ε-his), antibody titrated, HRP goat anti-human IgG, OD450

EC50 (read off the curve) [1]: ~0.06 µg/mL | EC50 (read off the curve) [2]: ~0.7 µg/mL | EC50 (read off the curve) [3]: ~0.05 µg/mL | kon [4]: 119000 M⁻¹ s⁻¹ | EC50 (read off the curve) [5]: ~0.05 µg/mL | EC50 (read off the curve) [6]: ~0.05 µg/mL
B1: chimeric anti-CD3 antibody CD3-19 (full length, human IgG1) (antibody, V domains shown)
VH: EVKLLESGGGLVQPKGSLKLSCAASGFTFNSYAMNWVRQAPGKGLEWVARIRSKYNNYATYYADSVKDRFTISRDDSQSILYLQMNNLKTEDTAMYYCVRHGNFGNSYLSYWAYWGQGTLVTVSA
VL: QAVVTQESALTTSPGETVTLTCDSSTGAVTTSNYANWVQEKPDHLFTGLIGGTQRSAPGVPARFSGSLIGDKAALTITGAQTEDEAIYFCVLWYSNLWVFGGGTKLTVLG
notes: also called chimeric CD3-19 antibody; parent antibody

binding result [8]: binds | Kd [9]: 1.99 nM | EC50 (read off the curve) [10]: ~0.04 µg/mL | EC50 (read off the curve) [11]: ~0.06 µg/mL
B2: MBS303-1 (bispecific antibody against CD3 and CD20, MIL220 + MIL221-1) (bispecific antibody, human IgG1, kappa, lambda, L234A L235A, N297A)
heavy 1: QVQLVQSGAEVKKPGSSVKVSCKASGYAFSYSWINWVRQAPGQGLEWMGRIFPGDGDTDYNGKFKGRVTITADKSTSTAYMELSSLRSEDTAVYYCARNVFDGYWLVYWGQGTLVTVSSASTKGPSVFPLAPSSKSTSGGTAALGCLVKDYFPEPVTVSWNSGALTSGVHTFPAVLQSSGLYSLSSVVTVPSSSLGTQTYICNVNHKPSNTKVDKKVEPKSCDKTHTCPPCPAPEAAGGPSVFLFPPKPKDTLMISRTPEVTCVVVDVSHEDPEVKFNWYVDGVEVHNAKTKPREEQYASTYRVVSVLTVLHQDWLNGKEYKCKVSNKALPAPIEKTISKAKGQPREPQVYTLPPSREEMTKNQVSLSCAVKGFYPSDIAVEWESNGQPENNYKTTPPVLDSDGSFFLVSKLTVDKSRWQQGNVFSCSVMHEALHNHYTQKSLSLSPGK
light 1: DIVMTQTPLSLPVTPGEPASISCRSSKSLLHSNGITYLYWYLQKPGQSPQLLIYQMSNLVSGVPDRFSGSGSGTDFTLKISRVEAEDVGVYYCAQNLELPYTFGGGTKVEIKRTVAAPSVFIFPPSDEQLKSGTASVVCLLNNFYPREAKVQWKVDNALQSGNSQESVTEQDSKDSTYSLSSTLTLSKADYEKHKVYACEVTHQGLSSPVTKSFNRGEC
heavy 2: QVQLVQSGAEVKKPGSSVKVSCKASGYAFSYSWINWVRQAPGQGLEWMGRIFPGDGDTDYNGKFKGRVTITADKSTSTAYMELSSLRSEDTAVYYCARNVFDGYWLVYWGQGTLVTVSSGGGGSGGGGSGGGGSDIVMTQTPLSLPVTPGEPASISCRSSKSLLHSNGITYLYWYLQKPGQSPQLLIYQMSNLVSGVPDRFSGSGSGTDFTLKISRVEAEDVGVYYCAQNLELPYTFGGGTKVEIKGGGGSGGGGSGGGGSEVQLLESGGGLVQPGGSLRLSCAASGFTFNTYAMNWVRQAPGKGLEWVARIRSKYNNYATYYAISVKDRFTISRDNSKNTLYLQMNSLRAEDTAVYYCVKHGNFGNSYLSYWAYWGQGTLVTVSSASTKGPSVFPLAPSSKSTSGGTAALGCLVKDYFPEPVTVSWNSGALTSGVHTFPAVLQSSGLYSLSSVVTVPSSSLGTQTYICNVNHKPSNTKVDKKVEPKSCDKTHTCPPCPAPEAAGGPSVFLFPPKPKDTLMISRTPEVTCVVVDVSHEDPEVKFNWYVDGVEVHNAKTKPREEQYASTYRVVSVLTVLHQDWLNGKEYKCKVSNKALPAPIEKTISKAKGQPREPQVYTLPPSREEMTKNQVSLWCLVKGFYPSDIAVEWESNGQPENNYKTTPPVLDSDGSFFLYSKLTVDKSRWQQGNVFSCSVMHEALHNHYTQKSLSLSPGK
light 2: QAVVTQEPSLTVSPGGTVTLTCQSSTGAVTTNNYANWVQQKPGHAFRGLIGGTKQRAPGVPARFSGSLLGGKAALTLSGVQPEDEAEYYCVLWYSNLWVFGGGTKLTVLGQPKAAPSVTLFPPSSEELQANKATLVCLISDFYPGAVTVAWKADSSPVKAGVETTTPSKQSNNKYAASSYLSLTPEQWKSHRSYSCQVTHEGSTVEKTVAPT
notes: CD20:CD3 = 2:1
EC50 of killing of HEK293A/hCD20 cells by T cells, MBS303-1 alone [7]: 0.0076 µg/mL | EC50 of killing of HEK293A/hCD20 cells by T cells, MBS303-1 with 1 µg/ml MIL62 [7]: 0.0032 µg/mL

EC50 (read off the curve) [8]: ~0.06 µg/mL | Kd [9]: 1.79 nM | EC50 (read off the curve) [10]: ~0.03 µg/mL | EC50 (read off the curve) [11]: ~0.06 µg/mL
B3: MBS303-2 (bispecific antibody against CD3 and CD20, MIL220 + MIL221-2) (bispecific antibody, human IgG1, kappa, lambda, L234A L235A, N297A)
heavy 1: B2 heavy 1
light 1: B2 light 1
heavy 2: B2 heavy 2 with N337D, V356M, K361R
light 2: B2 light 2
notes: CD20:CD3 = 2:1
EC50 of killing of HEK293A/hCD20 cells by T cells, MBS303-2 alone [7]: 0.0098 µg/mL | EC50 of killing of HEK293A/hCD20 cells by T cells, MBS303-2 with 1 µg/ml MIL62 [7]: 0.0039 µg/mL
